Molecular target: HA of H3N2 influenza virus Wyomin/3/03.rg (influenza A virus H3N2 Wyomin/3/03.rg)
Assay: cell-based or functional assay

Question: Which MN titer does the source give for CT149 antibody here?
Answer: The MN titer was 5 µg/mL.

From patent US20140234336A1
